Data published in article PMC5700950.

Target: C3d, the covalently bound activation product of complement C3, in mouse myocardium (mouse (endogenous in C57BL/6 heart)) (UniProt P01027)
Assay: ex vivo organ biodistribution (gamma counting); organs removed after imaging, weighed and gamma counted; heart to blood ratio of injected dose per gram

Chain of UniProt P01027 (P01027 1002-1303): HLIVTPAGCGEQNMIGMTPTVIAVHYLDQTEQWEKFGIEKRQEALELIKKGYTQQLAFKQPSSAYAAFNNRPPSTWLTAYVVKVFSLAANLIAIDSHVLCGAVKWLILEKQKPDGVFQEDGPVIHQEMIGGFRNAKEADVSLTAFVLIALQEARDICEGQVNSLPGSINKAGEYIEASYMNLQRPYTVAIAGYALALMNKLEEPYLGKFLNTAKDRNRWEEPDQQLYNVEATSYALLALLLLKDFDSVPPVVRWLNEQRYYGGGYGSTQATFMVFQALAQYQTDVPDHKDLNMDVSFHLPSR

heart to blood ratio of %ID/g (heart to blood ratio of %ID/g): 1.17
Substance: 99mTechnecium-labelled recombinant complement receptor 2 (SCR1 and SCR2 of human CR2) (domain or fragment)
